This note sets out measurements from paper PMC11992174.

This assay addresses MtbClpC1^F444S-E288A-E626A (Mycobacterium tuberculosis) (UniProt P9WPC9). Briefly: cryo-EM structure.

The term stoichiometry N denotes a count of units in the complex or per binding partner. Regarding “MtbClpC1^F444S-E288A-E626A (from UniProt P9WPC9 1-848) (enzyme)”, the stoichiometry N worked out at 6.
